The values that follow come from patent publication US20140161800A1 (APTEVO RESEARCH AND DEVELOPMENT, published 2014).

Assay [1] deals with T1, prostate-specific membrane antigen (PSMA) (human, UniProt Q04609 1-750).
T1 construct: whole, on cells; also called glutamate carboxypeptidase II; N-acetylated alpha-linked acidic dipeptidase 1
The experiment in a line: flow cytometry on PSMA+ prostate cancer cells (FIG. 1). (In flow cytometry, cells or beads pass a laser one at a time.)

The target of assay [2] is T1, prostate-specific membrane antigen …. The experiment in a line: flow cytometry on PSMA+ C4-2 cells (FIG. 2A). The method, then: (§1) A typical experiment would label 300,000 cells per well with a range of 200 nM to 0.1 nM binding molecule in 100 ul of FACS buffer (PBS+2% normal goat serum+2% fetal bovine serum+0.1% sodium azide) on ice, followed by washes and incubation with fluorescently-labeled secondary antibody, goat anti-human IgG (1:400 dilution of Invitrogen #11013=5 ug/ml). After washing secondary antibody off cells, cells were incubated with 7-Aminoactinomycin D (7-AAD) staining solution (BD Pharmingen™ cat#559925) (6 ul of 7AAD to 100 ul of FACS Buffer) for 20 minutes. Signal from bound molecules was detected using a FACSCalibur™ flow cytometer (BD Biosciences) and analyzed by FlowJo flow cytometry analysis software. 7-AAD+ cells were excluded from analysis. Nonlinear regression analysis to determine EC50s was performed in GraphPad Prism® graphing and statistics software.

The target is the same in assay [3]. Put plainly: flow cytometry on PSMA+ C4-2 cells (FIG. 2B). As to the method: as §1

T1 sequence (Q04609 whole entry): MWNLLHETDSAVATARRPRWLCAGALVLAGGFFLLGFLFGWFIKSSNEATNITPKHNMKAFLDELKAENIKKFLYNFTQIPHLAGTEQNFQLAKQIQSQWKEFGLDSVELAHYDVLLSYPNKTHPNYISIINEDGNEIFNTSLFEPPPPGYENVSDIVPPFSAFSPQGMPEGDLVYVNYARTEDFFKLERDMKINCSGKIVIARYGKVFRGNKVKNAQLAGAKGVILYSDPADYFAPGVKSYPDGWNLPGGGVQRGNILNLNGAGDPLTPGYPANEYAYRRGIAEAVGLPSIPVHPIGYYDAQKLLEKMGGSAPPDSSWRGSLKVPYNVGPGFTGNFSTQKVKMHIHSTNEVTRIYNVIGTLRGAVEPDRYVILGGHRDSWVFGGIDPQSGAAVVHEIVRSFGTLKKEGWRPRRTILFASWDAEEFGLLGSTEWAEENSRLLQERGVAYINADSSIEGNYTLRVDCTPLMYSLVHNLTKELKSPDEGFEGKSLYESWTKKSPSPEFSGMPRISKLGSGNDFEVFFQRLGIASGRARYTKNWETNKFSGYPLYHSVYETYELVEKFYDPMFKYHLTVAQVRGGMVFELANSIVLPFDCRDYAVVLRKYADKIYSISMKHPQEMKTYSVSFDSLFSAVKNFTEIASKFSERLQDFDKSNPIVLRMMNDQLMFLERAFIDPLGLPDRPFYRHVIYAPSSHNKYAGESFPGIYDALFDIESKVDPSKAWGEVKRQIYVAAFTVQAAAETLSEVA

B1: TSC085 chimeric SMIP (murine 107-1A4 VL-VH scFv-human Fc) (Fc fusion)
chain: DVQITQSPSYLAASPGETITINCRASKSISKYLAWYQEKPGKANKLLIHSGSTLQSGIPSRFSGSGSGTDFTLTISSLEPEDFAMYYCQQHIEYPWTFGGGTKLEIKRAGGGGSGGGGSSGGGGSEIQLQQSGPELVKPGASVKMSCKASGYTFTDYYMHWVKQNNGESLEWIGYFNPYNDYTRYNQNFNGKATLTVDKSSSTAYMQLNSLTSEDSAFYYCARSDGYYDAMDYWGQGTSVTVSSSEPKSSDKTHTCPPCPAPEAAGAPSVFLFPPKPKDTLMISRTPEVTCVVVDVSHEDPEVKFNWYVDGVEVHNAKTKPREEQYNSTYRVVSVLTVLHQDWLNGKAYACAVSNKALPAPIEKTISKAKGQPREPQVYTLPPSRDELTKNQVSLTCLVKGFYPSDIAVEWESNGQPENNYKTTPPVLDSDGSFFLYSKLTVDKSRWQQGNVFSCSVMHEALHNHYTQKSLSLSPGK
notes: scFv-hinge-Fc
Consider B1, for which the binding result in assay [1] is given as “binds”.

B2: TSC188 humanized SMIP (107-1A4 VL-VH#1 scFv-Fc) (Fc fusion)
chain: DIQMTQSPSAMSASVGDRVTITCRASKSISKYLAWFQQKPGKVPKLRIHSGSTLQSGVPSRFSGSGSGTEFTLTISSLQPEDFATYYCQQHIEYPWTFGQGTKVEIKRGGGGSGGGGSGGGGSEVQLVQSGAEVKKPGATVKISCKASGYTFTDYYMHWVQQAPGKGLEWMGYFNPYNDYTRYAEKFQGRVTITADTSTDTAYMELSSLRSEDTAVYYCARSDGYYDAMDYWGQGTTVTVSSSEPKSSDKTHTCPPCPAPEAAGAPSVFLFPPKPKDTLMISRTPEVTCVVVDVSHEDPEVKFNWYVDGVEVHNAKTKPREEQYNSTYRVVSVLTVLHQDWLNGKAYACAVSNKALPAPIEKTISKAKGQPREPQVYTLPPSRDELTKNQVSLTCLVKGFYPSDIAVEWESNGQPENNYKTTPPVLDSDGSFFLYSKLTVDKSRWQQGNVFSCSVMHEALHNHYTQKSLSLSPGK
notes: scFv-hinge-Fc
With B2, in assay [2], the binding result was “binds”.

B3: TSC189 humanized SMIP (107-1A4 VL-VH#2 scFv-Fc) (Fc fusion)
chain: DIQMTQSPSAMSASVGDRVTITCRASKSISKYLAWFQQKPGKVPKLRIHSGSTLQSGVPSRFSGSGSGTEFTLTISSLQPEDFATYYCQQHIEYPWTFGQGTKVEIKRGGGGSGGGGSGGGGSQVQLVQSGAEVKKPGASVKVSCKASGYTFTDYYMHWVRQAPGQGLEWMGYFNPYNDYTRYAQKFQGRVTMTRDTSISTAYMELSSLRSDDTAVYYCARSDGYYDAMDYWGQGTTVTVSSSEPKSSDKTHTCPPCPAPEAAGAPSVFLFPPKPKDTLMISRTPEVTCVVVDVSHEDPEVKFNWYVDGVEVHNAKTKPREEQYNSTYRVVSVLTVLHQDWLNGKAYACAVSNKALPAPIEKTISKAKGQPREPQVYTLPPSRDELTKNQVSLTCLVKGFYPSDIAVEWESNGQPENNYKTTPPVLDSDGSFFLYSKLTVDKSRWQQGNVFSCSVMHEALHNHYTQKSLSLSPGK
notes: scFv-hinge-Fc
With B3, the binding result in assay [2] is on record as “binds”.

B4: TSC092 chimeric SMIP (murine 107-1A4 VH-VL scFv-human Fc) (Fc fusion)
chain: EIQLQQSGPELVKPGASVKMSCKASGYTFTDYYMHWVKQNNGESLEWIGYFNPYNDYTRYNQNFNGKATLTVDKSSSTAYMQLNSLTSEDSAFYYCARSDGYYDAMDYWGQGTSVTVSSGGGGSGGGGSSGGGGSDVQITQSPSYLAASPGETITINCRASKSISKYLAWYQEKPGKANKLLIHSGSTLQSGIPSRFSGSGSGTDFTLTISSLEPEDFAMYYCQQHIEYPWTFGGGTKLEIKRASSEPKSSDKTHTCPPCPAPEAAGAPSVFLFPPKPKDTLMISRTPEVTCVVVDVSHEDPEVKFNWYVDGVEVHNAKTKPREEQYNSTYRVVSVLTVLHQDWLNGKAYACAVSNKALPAPIEKTISKAKGQPREPQVYTLPPSRDELTKNQVSLTCLVKGFYPSDIAVEWESNGQPENNYKTTPPVLDSDGSFFLYSKLTVDKSRWQQGNVFSCSVMHEALHNHYTQKSLSLSPGK
notes: scFv-hinge-Fc
With B4, the binding result in assay [1] is “binds”.

B5: TSC194 Scorpion (huVL-VH#2 107-1A4 scFv-Fc-Cris7 scFv) (bispecific antibody)
chain: DIQMTQSPSAMSASVGDRVTITCRASKSISKYLAWFQQKPGKVPKLRIHSGSTLQSGVPSRFSGSGSGTEFTLTISSLQPEDFATYYCQQHIEYPWTFGQGTKVEIKRGGGGSGGGGSGGGGSQVQLVQSGAEVKKPGASVKVSCKASGYTFTDYYMHWVRQAPGQGLEWMGYFNPYNDYTRYAQKFQGRVTMTRDTSISTAYMELSSLRSDDTAVYYCARSDGYYDAMDYWGQGTTVTVSSSEPKSSDKTHTCPPCPAPEAAGAPSVFLFPPKPKDTLMISRTPEVTCVVVDVSHEDPEVKFNWYVDGVEVHNAKTKPREEQYNSTYRVVSVLTVLHQDWLNGKAYACAVSNKALPAPIEKTISKAKGQPREPQVYTLPPSRDELTKNQVSLTCLVKGFYPSDIAVEWESNGQPENNYKTTPPVLDSDGSFFLYSKLTVDKSRWQQGNVFSCSVMHEALHNHYTQKSLSLSPGQRHNNSSLNTGTQMAGHSPNSQVQLVQSGGGVVQPGRSLRLSCKASGYTFTRSTMHWVRQAPGKGLEWIGYINPSSAYTNYNQKFKDRFTISADKSKSTAFLQMDSLRPEDTGVYFCARPQVHYDYNGFPYWGQGTPVTVSSGGGGSGGGGSGGGGSAQDIQMTQSPSSLSASVGDRVTMTCSASSSVSYMNWYQQKPGKAPKRWIYDSSKLASGVPARFSGSGSGTDYTLTISSLQPEDFATYYCQQWSRNPPTFGGGTKLQITR
notes: also called humanized SCORPION molecule
As to B5, the binding result in assay [3] is on record as “binds”.

B6: TSC199 Scorpion (huVL-VH#1 107-1A4 scFv-Fc-Cris7 scFv) (bispecific antibody)
chain: DIQMTQSPSAMSASVGDRVTITCRASKSISKYLAWFQQKPGKVPKLRIHSGSTLQSGVPSRFSGSGSGTEFTLTISSLQPEDFATYYCQQHIEYPWTFGQGTKVEIKRGGGGSGGGGSGGGGSEVQLVQSGAEVKKPGATVKISCKASGYTFTDYYMHWVQQAPGKGLEWMGYFNPYNDYTRYAEKFQGRVTITADTSTDTAYMELSSLRSEDTAVYYCARSDGYYDAMDYWGQGTTVTVSSSEPKSSDKTHTCPPCPAPEAAGAPSVFLFPPKPKDTLMISRTPEVTCVVVDVSHEDPEVKFNWYVDGVEVHNAKTKPREEQYNSTYRVVSVLTVLHQDWLNGKAYACAVSNKALPAPIEKTISKAKGQPREPQVYTLPPSRDELTKNQVSLTCLVKGFYPSDIAVEWESNGQPENNYKTTPPVLDSDGSFFLYSKLTVDKSRWQQGNVFSCSVMHEALHNHYTQKSLSLSPGQRHNNSSLNTGTQMAGHSPNSQVQLVQSGGGVVQPGRSLRLSCKASGYTFTRSTMHWVRQAPGKGLEWIGYINPSSAYTNYNQKFKDRFTISADKSKSTAFLQMDSLRPEDTGVYFCARPQVHYDYNGFPYWGQGTPVTVSSGGGGSGGGGSGGGGSAQDIQMTQSPSSLSASVGDRVTMTCSASSSVSYMNWYQQKPGKAPKRWIYDSSKLASGVPARFSGSGSGTDYTLTISSLQPEDFATYYCQQWSRNPPTFGGGTKLQITR
notes: as for B5
With B6, the binding result in assay [3] is reported as “binds”.
